Reference: article PMC5811407 (Thrombosis research, 2017)

What was measured:
[1] = molecular target: soluble form of human VLDL receptor (human) (UniProt P98155); assay: SPR
[2] = molecular target: recombinant fibrin (β15-66)2 fragment (human); assay: ELISA
[3] = molecular target: recombinant fibrinogen (Bβ1-66)2 fragment (human); assay: ELISA
[4] = molecular target: human fibrin (human) (UniProt P02679); assay: ELISA
[5] = molecular target: soluble form of human VLDL receptor (human, UniProt P98155 28-797); assay: ELISA

Molecule “recombinant fibrinogen (Bβ1-66)2 fragment (domain or fragment)” has a Kd [1] of 254 nM.

“soluble form of human VLDL receptor (from UniProt P98155 28-797)” gave a Kd [2] of 5.9 nM, a Kd [3] of 7.7 nM and a Kd [4] of 7.2 nM.

B1: human receptor-associated protein (natural protein, UniProt P30533 35-357, looked up)
chain: YSREKNQPKPSPKRESGEEFRMEKLNQLWEKAQRLHLPPVRLAELHADLKIQERDELAWKKLKLDGLDEDGEKEARLIRNLNVILAKYGLDGKKDARQVTSNSLSGTQEDGLDDPRLEKLWHKAKTSGKFSGEELDKLWREFLHHKEKVHEYNVLLETLSRTEEIHENVISPSDLSDIKGSVLHSRHTELKEKLRSINQGLDRLRRVSHQGYSTEAEFEEPRVIDLWDLAQSANLTDKELEAFREELKHFEAKIEKHNHYQKQLEIAHEKLRHAESVGDGERVSRSREKHALLEGRTKELGYTVKKHLQDLSGRISRARHNEL
B1: binds [5].
